{"source": "patent US9644034B2", "about": "“Anti-RSPO2 antibodies and uses thereof” (OncoMed Pharmaceuticals, Inc., priority 2011, dated 2017)", "key": {"[1]": {"system": "PN7 pancreatic tumor cells", "test": "PN7 pancreatic tumor xenograft growth in NOD/SCID mice", "assay_type": "in vivo", "conditions": "vs control antibody; 130M23 10 mg/kg, 18R5 20 mg/kg, gemcitabine once a week, intraperitoneal", "protocol": "Dissociated PN7 pancreatic tumor cells (1×10^5cells) were injected subcutaneously into the flanks of 6-8 week old NOD/SCID mice. Tumors were allowed to grow for 25 days until they reached an average volume of 130 mm^3. The mice were randomized (n=10 per group) and treated with anti-RSPO2 antibody 130M23, anti-FZD antibody 18R5, gemcitabine, a combination of 130M23 and gemcitabine, a combination of 18R5 and gemcitabine, a combination of 130M23 and 18R5, a combination of 130M23, 18R5 and gemcitabine, or control antibody 1B7.11. Anti-RSPO2 antibody 130M23 was dosed at 10 mg/kg once a week, anti-FZD antibody 18R5 was dosed at 20 mg/kg once a week, and gemcitabine was dosed at […] once a week. Administration of the antibodies and gemcitabine was performed via injection into the intraperitoneal cavity. Tumor growth was monitored and tumor volumes were measured with electronic calipers at specific time points. Data are expressed as mean±S.E.M. A parallel set of experiments included mice treated with a FZD8-Fc soluble receptor (10 mg/kg) in combination with gemcitabine and FZD8-Fc in combination with 130M23 and gemcitabine."}, "[2]": {"system": "PN7 tumors", "test": "Serial transplantation of cells from treated PN7 tumors (tumorigenicity)", "assay_type": "in vivo, NOD-SCID mice", "conditions": "90 cells injected, 40 days growth with no treatment; vs control antibody", "protocol": "The PN7 tumors described above were processed to yield single cell suspensions. Mouse cells were depleted from the cell mixtures using biotinylated anti-H2K^d and anti-CD45 antibodies and streptavidin-conjugated magnetic beads. The remaining human tumor cells were serially transplanted into a new cohort of mice. 90 tumor cells from each treatment group were injected into the flanks of NOD-SCID mice (n=10 mice per group). Tumors were allowed to grow for 40 days with no treatment and tumor volumes were measured with electronic calipers."}, "[3]": {"system": "RSPO", "test": "FACS RSPO binding activity of conditioned media from HEK-293 cells cotransfected with candidate humanized chains", "conditions": "conditioned media of cotransfected HEK-293 cells", "protocol": "The functionality of each candidate variant humanized heavy chain and light chain was tested by cotransfection into mammalian cells. Each candidate humanized heavy chain described above was cotransfected into HEK-293 cells with the murine light chain cDNA, and conditioned media was assayed by FACS for RSPO binding activity. […] The 89M5-H2 humanized heavy chain was cotransfected into HEK-293 cells with each of the candidate humanized light chains, and conditioned media was again assayed for antigen binding by FACS. […] The 130M23-H1 humanized heavy chain was cotransfected into HEK-293 cells with each of the candidate humanized light chains, and conditioned media was again assayed for antigen binding by FACS."}, "[4]": {"molecular_target": "T1, human RSPO1 (Homo sapiens, UniProt Q2MKA7)", "T1 construct": "followed by the two furin-like domains of RSPO1 (aa 34-135); expressed in transfected cells; host or cells: HEK-293", "T1 sequence (Q2MKA7 34-135)": "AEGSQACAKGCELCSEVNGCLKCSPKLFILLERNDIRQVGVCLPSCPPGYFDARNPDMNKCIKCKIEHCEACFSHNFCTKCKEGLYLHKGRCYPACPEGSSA", "test": "FACS screening of hybridoma supernatants on HEK-293 cells expressing FLAG-RSPO1furin-CD4TM-GFP", "assay_type": "binding", "source_text": "Antibodies were generated against recombinant human RSPO1 protein amino acids 31-263 (R&D Systems, Minneapolis, Minn.). Mice (n=3) were immunized with RSPO1 protein using standard techniques. Sera from individual mice were screened against RSPO1 approximately 70 days after initial immunization using FACS analysis. The animal with the highest antibody titer was selected for final antigen boost after which spleen cells were isolated for hybridoma production. SP2/0 cells were used as fusion partners for the mouse spleen cells. Hybridoma cells were plated at 1 cell per well in 96 well plates, and the supernatants were screened against human RSPO1 by FACS analysis.\nFor FACS screening of anti-RSPO1 antibodies a chimeric fusion protein enabling cell surface expression of the N-terminal furin-like domains of human RSPO1 was constructed.\nHEK-293 cells were transfected with FLAG-RSPOlfurin-CD4TM-GFP. After 48 hours, transfected cells were suspended in ice cold PBS containing 2% FBS and heparin and incubated on ice in the presence of 50 μl of hybridoma supernatants for 30 minutes. A second incubation with 100 μl PE-conjugated […] secondary antibody was performed to detect cells bound by antibody. Cells were incubated with an anti-FLAG antibody (Sigma-Aldrich, St. Louis, Mo.) as a positive control and an anti-PE antibody as a negative control. The cells were analyzed on a FACSCalibur instrument (BD Biosciences, San Jose, Calif.) and the data was processed using FlowJo software."}, "[5]": {"system": "RSPO1-induced β-catenin signaling", "test": "TOPflash luciferase assay in HEK-293 cells, Wnt3a plus human RSPO1", "assay_type": "cell-based", "conditions": "Wnt3a 5 ng/ml, RSPO1 10 ng/ml; antibodies 10 to 0.625 μg/ml", "protocol": "HEK-293 cells were transfected with a 6×TCF-luciferase reporter vector (TOPflash, Millipore, Billerica, Mass.). After 24-48 hrs, the transfected HEK-293 cells were incubated with a combination of Wnt3a (5 ng/ml) and human RSPO1 (10 ng/ml, R&D BioSystems) in the presence of anti-RSPO1 antibodies 89M2, 89M4, 89M5, 89M7, 89M19, and 89M25, or 2 irrelevant control antibodies 254M14 and 254M26 (2-fold dilutions at 10 μg/ml to 0.625 μg/ml). The cells were incubated for 16 hours and luciferase activity was measured using Steady-Glo® Luciferase Assay System according to the manufacturer's instructions (Promega, Madison, Wis.)."}, "[6]": {"molecular_target": "T2, binding of RSPO1 to LGR5 (Homo sapiens, UniProt Q2MKA7)", "T2 construct": "full-length human RSPO1, RSPO2, RSPO3 and RSPO4 were ligated in-frame to a human Fc region; made in house; host or cells: RSPO1-Fc: insect cells (baculovirus); LGR5 construct: transiently transfected HEK-293", "T2 sequence (Q2MKA7 21-263)": "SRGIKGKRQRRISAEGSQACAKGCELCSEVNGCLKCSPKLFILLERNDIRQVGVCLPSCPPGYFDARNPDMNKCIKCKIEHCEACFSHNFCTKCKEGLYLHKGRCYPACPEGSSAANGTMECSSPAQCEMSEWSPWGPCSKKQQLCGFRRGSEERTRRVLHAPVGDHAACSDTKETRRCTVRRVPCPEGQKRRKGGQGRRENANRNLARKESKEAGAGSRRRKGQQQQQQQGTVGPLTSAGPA", "test": "FACS: blocking of soluble RSPO1-Fc binding to LGR5 on HEK-293 cells", "conditions": "RSPO1-Fc 10 μg/ml, antibodies 10 μg/ml", "protocol": "HEK-293 cells were transiently transfected with the FLAG-LGR5-CD4TM-GFP construct (previously described in Example 2). After 48 hours, transfected cells were suspended in ice cold PBS containing 2% FBS and heparin and incubated on ice in the presence of RSPO1-Fc protein (10 μg/ml) and antibodies 89M2, 89M4, 89M5, 89M7, 89M19 or 89M25 (10 μg/ml). A second incubation with 100 μl PE-conjugated anti-human Fc secondary antibody was performed to detect cells bound by the RSPO1-Fc fusion protein. The cells were analyzed on a FACSCalibur instrument (BD Biosciences, San Jose, Calif.) and the data was processed using FlowJo software."}}, "data": [{"molecule": "18R5: anti-FZD antibody, Wnt pathway inhibitor (antibody, chains of the INN, looked up, V domains shown) VH: EVQLVESGGGLVQPGGSLRLSCAASGFTFSHYTLSWVRQAPGKGLEWVSVISGDGSYTYYADSVKGRFTISSDNSKNTLYLQMNSLRAEDTAVYYCARNFIKYVFANWGQGTLVTVSS VL: DIELTQPPSVSVAPGQTARISCSGDNIGSFYVHWYQQKPGQAPVLVIYDKSNRPSGIPERFSGSNSGNTATLTISGTQAEDEADYYCQSYANTLSLVFGGGTKLTVL", "values": [{"measurement": "reduction in tumor growth", "setting": "[1]", "result": "approximately 55%"}, {"measurement": "tumorigenicity of cells isolated from treated mice", "setting": "[2]", "result": "greatly decreased tumorigenicity"}]}, {"molecule": "89M5-L2: humanized 89M5 light chain variant (SEQ ID NO:69) (protein, h89M5-H2L2 Light chain amino acid sequence) light: DIQMTQSPSSLSASVGDRVTITCKASQDVIFAVAWYQQKPGKAPKLLIYWASTRHTGVPSRFSGSGSGTDYTLTISSLQPEDFATYYCQQHYSTPWTFGGGTKVEIKRTVAAPSVFIFPPSDEQLKSGTASVVCLLNNFYPREAKVQWKVDNALQSGNSQESVTEQDSKDSTYSLSNTLTLSKADYEKHKVYACEVTHQGLSSPVTKSFNRGEC", "values": [{"measurement": "binding by FACS among candidate humanized chain variants", "setting": "[3]", "result": "most robust binding"}]}, {"molecule": "130M23-L2: humanized 130M23 light chain variant (SEQ ID NO:71) (protein, h130M23-H1L2 Light chain amino acid sequence) light: DIQMTQSPSSLSASVGDRVTITCKASQDVSSAVAWYQQKPGKAPKLLIYWASTRHTGVPSRFSGSGSGTDFTLTISSVQAEDFATYYCQQHYSTPWTFGQGTKVEIKRTVAAPSVFIFPPSDEQLKSGTASVVCLLNNFYPREAKVQWKVDNALQSGNSQESVTEQDSKDSTYSLSNTLTLSKADYEKHKVYACEVTHQGLSSPVTKSFNRGEC", "values": [{"measurement": "binding by FACS among candidate humanized chain variants", "setting": "[3]", "result": "most robust binding"}]}, {"molecule": "89M5-H2: humanized 89M5 heavy chain variant (SEQ ID NO:68) (antibody, h89M5-H2L2 Heavy chain amino acid sequence) heavy: QVQLVQSGAEVKKPGASVKVSCKTSGYTFTGYTMHWVRQAPGQRLEWMGGINPNNGGTTYNQNFKGRVTITRDTSASTAYMELSSLRSEDTAVYYCARKEFSDGYYFFAYWGQGTLVTVSSASTKGPSVFPLAPCSRSTSESTAALGCLVKDYFPEPVTVSWNSGALTSGVHTFPAVLQSSGLYSLSSVVTVPSSNFGTQTYTCNVDHKPSNTKVDKTVERKCCVECPPCPAPPVAGPSVFLFPPKPKDTLMISRTPEVTCVVVDVSHEDPEVQFNWYVDGVEVHNAKTKPREEQFNSTFRVVSVLTVVHQDWLNGKEYKCKVSNKGLPAPIEKTISKTKGQPREPQVYTLPPSREEMTKNQVSLTCLVKGFYPSDIAVEWESNGQPENNYKTTPPMLDSDGSFFLYSKLTVDKSRWQQGNVFSCSVMHEALHNHYTQKSLSLSPGK", "values": [{"measurement": "binding by FACS among candidate humanized chain variants", "setting": "[3]", "result": "most robust binding"}]}, {"molecule": "130M23-H1: humanized 130M23 heavy chain variant (SEQ ID NO:70) (antibody, h130M23-H1L2 Heavy chain amino acid sequence) heavy: EVQLVESGGGLVKPGGSLRLSCAASGFTFSSYAMSWVRQAPGKGLEWVSSISSGGSTYYPDSVKGRFTISRDNAKNSLYLQMNSLRAEDTAVYYCARGGDPGVYNGDYEDAMDYWGQGTTVTVSSASTKGPSVFPLAPCSRSTSESTAALGCLVKDYFPEPVTVSWNSGALTSGVHTFPAVLQSSGLYSLSSVVTVPSSNFGTQTYTCNVDHKPSNTKVDKTVERKCCVECPPCPAPPVAGPSVFLFPPKPKDTLMISRTPEVTCVVVDVSHEDPEVQFNWYVDGVEVHNAKTKPREEQFNSTFRVVSVLTVVHQDWLNGKEYKCKVSNKGLPAPIEKTISKTKGQPREPQVYTLPPSREEMTKNQVSLTCLVKGFYPSDIAVEWESNGQPENNYKTTPPMLDSDGSFFLYSKLTVDKSRWQQGNVFSCSVMHEALHNHYTQKSLSLSPGK", "values": [{"measurement": "binding by FACS among candidate humanized chain variants", "setting": "[3]", "result": "most robust binding"}]}, {"molecule": "89M2: anti-RSPO1 monoclonal antibody; same heavy and light chain variable regions as 89M5 (antibody, V domains shown) VH: EVQLQQSGPELVKPGASVKISCKTSGYTFTGYTMHWVRQSHGKTLEWIGGINPNNGGTTYNQNFKGKATLTVEKSSTTAYLELRSLTSEDSALYYCARKEFSDGYYFFAYWGQGTLVTVSA VL: DIVMTQSHKFMSTSVGDRVNITCKASQDVIFAVAWYQQKPGQSPKLLIYWASTRHTGVPDRFTGSVSGTDYTLTISSVQAEDLALYYCQQHYSTPWTFGGGTKLEIK", "values": [{"measurement": "binding to RSPO1 (FACS)", "setting": "[4]", "result": "bound"}, {"measurement": "blocking of RSPO1-induced β-catenin signaling", "setting": "[5]", "result": "blocked"}, {"measurement": "blocking of binding of RSPO1 to LGR5", "setting": "[6]", "result": "blocked"}]}, {"molecule": "89M4: anti-RSPO1 monoclonal antibody; same heavy and light chain variable regions as 89M5 (antibody, V domains shown) VH: EVQLQQSGPELVKPGASVKISCKTSGYTFTGYTMHWVRQSHGKTLEWIGGINPNNGGTTYNQNFKGKATLTVEKSSTTAYLELRSLTSEDSALYYCARKEFSDGYYFFAYWGQGTLVTVSA VL: DIVMTQSHKFMSTSVGDRVNITCKASQDVIFAVAWYQQKPGQSPKLLIYWASTRHTGVPDRFTGSVSGTDYTLTISSVQAEDLALYYCQQHYSTPWTFGGGTKLEIK", "values": [{"measurement": "binding to RSPO1 (FACS)", "setting": "[4]", "result": "bound"}, {"measurement": "blocking of RSPO1-induced β-catenin signaling", "setting": "[5]", "result": "blocked"}, {"measurement": "blocking of binding of RSPO1 to LGR5", "setting": "[6]", "result": "blocked"}]}]}
